Source: US20110263485A1, “Bifunctional Griffithsin Analogs” (priority 2009, published 2011)

Legend:
Assay in all cases: cell-based or functional assay
[1] = target: HIV-1 IIIB (X4) env (gp120 and gp41) (HIV-1 strain IIIB)
[2] = target: HIV-1 Ba-L (R5) env (gp120 and gp41) (HIV-1 strain Ba-L)
[3] = target: HIV-1 92HT599 (CXCR4-tropic) env (gp120 and gp41) (HIV-1 strain 92HT599)
[4] = target: HIV-1 91US005 (R5) env (gp120 and gp41) (HIV-1 strain 91US005)
[5] = target: HIV-1 HXB2 env (X4) (gp120 and gp41) (HIV-1 strain HXB2) (UniProt P04578)
[6] = target: HIV-1 JRFL (R5) env (gp120 and gp41) (HIV-1 strain JRFL)
[7] = target: HIV-1 ADA (R5) env (gp120 and gp41) (HIV-1 strain ADA)
[8] = target: HIV-1 NL4-3 (CXCR4-tropic) env (gp120 and gp41) (HIV-1 strain NL4-3)

Sequence of Griffithsin (P84801 whole entry X31A): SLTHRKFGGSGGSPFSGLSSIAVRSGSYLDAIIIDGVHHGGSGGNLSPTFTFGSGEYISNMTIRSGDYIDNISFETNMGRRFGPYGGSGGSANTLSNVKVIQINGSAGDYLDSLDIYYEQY

## Griffithsin (from UniProt P84801 1-121)
[1]
  Inhibition of HIV virus, IIIB (X4) in MAGI cells, IC50: 0.145 nM
  Inhibition of HIV virus, IIIB (X4) in MAGI cells, IC90: 0.89 nM
[2]
  Inhibition of HIV virus, Ba-L (R5) in MAGI cells, IC50: 0.04 nM
  Inhibition of HIV virus, Ba-L (R5) in MAGI cells, IC90: 0.515 nM
  Inhibition of HIV virus, Ba-L (R5) in PBMC, IC50: 0.28 nM
  Inhibition of HIV virus, Ba-L (R5) in PBMC, IC90: 0.76 nM
[3]
  Inhibition of HIV-1 Replication in PBMCs, 92HT599 (CXCR4-tropic), IC50: 0.74 nM
  Inhibition of HIV-1 Replication in PBMCs, 92HT599 (CXCR4-tropic), IC90: 1.86 nM
[4]
  Inhibition of HIV virus, 91US005 (R5) in PBMC, IC50: 0.16 nM
  Inhibition of HIV virus, 91US005 (R5) in PBMC, IC90: 0.51 nM
  Inhibition of HIV-1 Replication in PBMCs, 91US005 (CCR5-tropic), IC50: 0.28 nM
  Inhibition of HIV-1 Replication in PBMCs, 91US005 (CCR5-tropic), IC90: 0.76 nM
[5]
  X4 fusion assay IC50: 0.468 nM
[6]
  Inhibition of HIV single round pseudovirus in TZM-bl cells, JRFL (R5), IC50: 0.035 nM
  Inhibition of HIV single round pseudovirus in TZM-bl cells, JRFL (R5), IC90: 1.25 nM
[7]
  Inhibition of HIV single round pseudovirus in TZM-bl cells, ADA (R5), IC50: 0.008 nM
  Inhibition of HIV single round pseudovirus in TZM-bl cells, ADA (R5), IC90: 0.164 nM
  Inhibition of HIV virus, ADA (R5) in MAGI cells, IC50: 0.03 nM
  Inhibition of HIV virus, ADA (R5) in MAGI cells, IC90: 0.45 nM
  R5 fusion assay IC50: 1.3 nM
  R5 fusion with competition IC50: 1.73 nM
  R5 fusion with wash-out on ADA cells IC50: 4.28 nM
  R5 fusion with wash-out on P5L cells IC50: 7.34 nM
[8]
  Inhibition of HIV-1 Replication in PBMCs, NL4-3 (CXCR4-tropic), IC50: 0.17 nM
  Inhibition of HIV-1 Replication in PBMCs, NL4-3 (CXCR4-tropic), IC90: 0.725 nM
